This note sets out measurements from patent publication US20240294623A1 (SCHOLAR ROCK, published 2024).

As a reminder, the Kd is the concentration at which binding is half-saturated. Read a low Kd as tighter binding.

Assay [1] addresses T1, hLTBP1-proTGFβ1 (human, UniProt Q14766 347-1721; P01137 30-390, limits assumed).
T1 construct: Large latent complex (LLC): proTGFβ1 dimer disulfide-linked to one presenting molecule; recombinant, purified, biotinylated in BLI/SPR; The same id is used for the complex made by transfected cells in the reporter assays; also called human LTBP1-proTGFβ1 complex; LTBP1-ProTGFb1
As to the kind of experiment: BLI (Octet). In general terms: BLI is a label-free optical method that tracks binding on a fibre tip over time.

Assay [2] addresses T2, hLTBP3-proTGFβ1 (human, UniProt Q9NS15 44-1303; P01137 30-390, limits assumed).
T2 construct: LLC as m1; Same id used for the cell-made complex in reporter assays; also called human LTBP3-proTGFβ1 complex; LTBP3-ProTGFb1
The experiment in a line: BLI (Octet).

Assay [3] concerns the target T3, hGARP-proTGFβ1 (human, UniProt Q14392 18-627; P01137 30-390, limits assumed).
T3 construct: LLC as m1; Same id used for the cell-surface complex in reporter assays; also called human GARP-proTGFβ1 complex; GARP-ProTGFb1
The experiment in a line: BLI (Octet).

The target in assay [4] is T4, hLRRC33-proTGFβ1 (human, UniProt Q86YC3 19-650; P01137 30-390, limits assumed).
T4 construct: LLC as m1; Same id used for the cell-surface complex in reporter assays; also called human LRRC33-proTGFβ1 complex; LRRC33-ProTGFb1
As to the kind of experiment: BLI (Octet).

Assay [5] concerns the target T1, hLTBP1-proTGFβ1. The experiment in a line: cell-based or functional assay.
Assay [6] deals with T2, hLTBP3-proTGFβ1. The experiment in a line: cell-based or functional assay.
The target of assay [7] is T3, hGARP-proTGFβ1. The experiment in a line: cell-based or functional assay.
In assay [8] the target is T4, hLRRC33-proTGFβ1. As to the kind of experiment: cell-based or functional assay.
The target of assay [9] is T1, hLTBP1-proTGFβ1. As to the kind of experiment: MSD-SET, hIgG4. The method, then: (§1) For solution equilibrium titration-based binding assays, protein complexes that comprise one of the presenting molecules such as those shown above may be employed as antigen (presenting molecule-TGFβ1 complex, or an LLC). Test antibodies are allowed to form antigen-antibody complex in solution. Antigen-antibody reaction mixtures are incubated to allow an equilibrium to be reached; the amount of the antigen-antibody complex present in the assay reactions can be measured by suitable means well known in the art. As compared to BLI-based assays, SET-based assays are less affected by on/off rates of the antigen-antibody complex, allowing sensitive detection of very high affinity interactions.

Assay [10] addresses T2, hLTBP3-proTGFβ1. The experiment in a line: MSD-SET, hIgG4. The method, then: as §1
Assay [11] has as its target T3, hGARP-proTGFβ1. As to the kind of experiment: MSD-SET, hIgG4. The method, then: as §1
The target in assay [12] is T4, hLRRC33-proTGFβ1. As to the kind of experiment: MSD-SET, hIgG4. On the procedure:
as §1

T4 sequence (Q86YC3 19-650 limits assumed, chain 1 of 2): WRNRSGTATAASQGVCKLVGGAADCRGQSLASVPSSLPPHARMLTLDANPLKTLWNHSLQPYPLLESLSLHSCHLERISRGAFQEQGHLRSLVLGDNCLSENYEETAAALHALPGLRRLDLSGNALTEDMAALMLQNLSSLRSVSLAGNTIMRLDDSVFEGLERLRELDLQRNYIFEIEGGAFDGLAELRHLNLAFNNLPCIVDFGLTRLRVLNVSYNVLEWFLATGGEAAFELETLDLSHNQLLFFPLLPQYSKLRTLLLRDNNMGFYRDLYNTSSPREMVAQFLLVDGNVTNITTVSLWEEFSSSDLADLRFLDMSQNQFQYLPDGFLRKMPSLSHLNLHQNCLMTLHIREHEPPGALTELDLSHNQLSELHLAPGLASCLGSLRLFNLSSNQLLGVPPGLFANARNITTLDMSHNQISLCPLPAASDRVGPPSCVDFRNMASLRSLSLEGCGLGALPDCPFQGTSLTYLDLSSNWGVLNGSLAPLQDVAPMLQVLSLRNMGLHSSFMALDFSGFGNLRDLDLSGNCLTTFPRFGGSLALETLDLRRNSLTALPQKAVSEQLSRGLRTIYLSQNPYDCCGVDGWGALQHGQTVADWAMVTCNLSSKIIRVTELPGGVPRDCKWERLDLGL
T4 sequence (P01137 30-390 limits assumed, chain 2 of 2): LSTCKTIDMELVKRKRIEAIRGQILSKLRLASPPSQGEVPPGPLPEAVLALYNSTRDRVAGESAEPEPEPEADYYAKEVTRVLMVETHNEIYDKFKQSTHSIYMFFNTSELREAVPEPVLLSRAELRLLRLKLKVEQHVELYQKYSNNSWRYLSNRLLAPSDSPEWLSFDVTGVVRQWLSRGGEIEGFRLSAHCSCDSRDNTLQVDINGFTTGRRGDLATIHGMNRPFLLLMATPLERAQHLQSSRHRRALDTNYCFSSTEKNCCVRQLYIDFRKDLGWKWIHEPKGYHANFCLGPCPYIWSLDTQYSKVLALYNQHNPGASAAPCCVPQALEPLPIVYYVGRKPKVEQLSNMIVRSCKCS
T2 sequence (Q9NS15 44-1303 limits assumed, chain 1 of 2): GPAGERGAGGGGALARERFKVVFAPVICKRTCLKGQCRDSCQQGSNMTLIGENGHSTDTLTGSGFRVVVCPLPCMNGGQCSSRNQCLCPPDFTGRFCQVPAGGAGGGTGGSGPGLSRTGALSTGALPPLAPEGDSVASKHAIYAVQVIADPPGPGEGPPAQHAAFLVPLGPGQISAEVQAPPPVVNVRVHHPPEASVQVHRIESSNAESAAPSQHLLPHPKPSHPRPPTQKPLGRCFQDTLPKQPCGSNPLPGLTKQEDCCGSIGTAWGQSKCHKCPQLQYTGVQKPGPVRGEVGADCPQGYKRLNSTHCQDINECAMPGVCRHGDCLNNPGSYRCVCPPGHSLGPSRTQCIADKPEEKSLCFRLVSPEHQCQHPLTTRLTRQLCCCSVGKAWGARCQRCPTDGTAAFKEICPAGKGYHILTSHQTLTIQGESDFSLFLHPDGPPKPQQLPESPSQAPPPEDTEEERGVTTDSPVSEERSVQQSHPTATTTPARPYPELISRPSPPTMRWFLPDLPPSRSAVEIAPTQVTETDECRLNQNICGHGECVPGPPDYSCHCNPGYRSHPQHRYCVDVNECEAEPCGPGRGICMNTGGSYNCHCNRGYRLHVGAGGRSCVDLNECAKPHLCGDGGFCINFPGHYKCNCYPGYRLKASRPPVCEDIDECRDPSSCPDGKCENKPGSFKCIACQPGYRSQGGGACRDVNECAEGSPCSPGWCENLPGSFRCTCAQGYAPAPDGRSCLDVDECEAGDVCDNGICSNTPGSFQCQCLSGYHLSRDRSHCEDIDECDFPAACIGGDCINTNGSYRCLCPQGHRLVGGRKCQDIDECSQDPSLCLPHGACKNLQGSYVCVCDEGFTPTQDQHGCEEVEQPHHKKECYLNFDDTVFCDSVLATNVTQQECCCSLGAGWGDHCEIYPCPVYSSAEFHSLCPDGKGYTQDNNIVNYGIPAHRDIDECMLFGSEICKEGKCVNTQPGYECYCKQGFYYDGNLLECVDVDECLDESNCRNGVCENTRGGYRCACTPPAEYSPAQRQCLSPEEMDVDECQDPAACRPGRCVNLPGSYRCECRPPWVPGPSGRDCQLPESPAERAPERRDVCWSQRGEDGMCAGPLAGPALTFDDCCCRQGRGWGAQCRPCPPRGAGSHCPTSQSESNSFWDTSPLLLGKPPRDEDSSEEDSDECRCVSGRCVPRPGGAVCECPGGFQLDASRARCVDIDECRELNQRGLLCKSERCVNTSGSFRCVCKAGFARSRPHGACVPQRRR
T2 sequence (P01137 30-390 limits assumed, chain 2 of 2): as the sequence (P01137 30-390 limits assumed, chain 2 of 2) above
T3 sequence (Q14392 18-627 limits assumed, chain 1 of 2): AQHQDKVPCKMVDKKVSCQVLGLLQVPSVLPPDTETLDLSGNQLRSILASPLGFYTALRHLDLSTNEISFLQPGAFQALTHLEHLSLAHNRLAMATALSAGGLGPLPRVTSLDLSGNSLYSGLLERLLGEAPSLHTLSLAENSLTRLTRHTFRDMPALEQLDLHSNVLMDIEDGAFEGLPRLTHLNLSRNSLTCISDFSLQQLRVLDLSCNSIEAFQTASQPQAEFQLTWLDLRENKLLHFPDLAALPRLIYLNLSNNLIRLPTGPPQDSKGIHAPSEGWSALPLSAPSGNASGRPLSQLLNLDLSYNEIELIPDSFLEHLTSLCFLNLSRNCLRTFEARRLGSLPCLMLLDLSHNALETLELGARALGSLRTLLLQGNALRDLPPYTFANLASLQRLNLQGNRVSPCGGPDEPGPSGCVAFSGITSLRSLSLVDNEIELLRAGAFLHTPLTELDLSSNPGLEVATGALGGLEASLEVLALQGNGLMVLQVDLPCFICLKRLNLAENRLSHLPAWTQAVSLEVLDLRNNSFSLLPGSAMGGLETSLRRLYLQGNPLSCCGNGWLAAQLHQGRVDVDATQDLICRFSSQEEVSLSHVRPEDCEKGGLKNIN
T3 sequence (P01137 30-390 limits assumed, chain 2 of 2): as the sequence (P01137 30-390 limits assumed, chain 2 of 2) above
T1 sequence (Q14766 347-1721 limits assumed, chain 1 of 2): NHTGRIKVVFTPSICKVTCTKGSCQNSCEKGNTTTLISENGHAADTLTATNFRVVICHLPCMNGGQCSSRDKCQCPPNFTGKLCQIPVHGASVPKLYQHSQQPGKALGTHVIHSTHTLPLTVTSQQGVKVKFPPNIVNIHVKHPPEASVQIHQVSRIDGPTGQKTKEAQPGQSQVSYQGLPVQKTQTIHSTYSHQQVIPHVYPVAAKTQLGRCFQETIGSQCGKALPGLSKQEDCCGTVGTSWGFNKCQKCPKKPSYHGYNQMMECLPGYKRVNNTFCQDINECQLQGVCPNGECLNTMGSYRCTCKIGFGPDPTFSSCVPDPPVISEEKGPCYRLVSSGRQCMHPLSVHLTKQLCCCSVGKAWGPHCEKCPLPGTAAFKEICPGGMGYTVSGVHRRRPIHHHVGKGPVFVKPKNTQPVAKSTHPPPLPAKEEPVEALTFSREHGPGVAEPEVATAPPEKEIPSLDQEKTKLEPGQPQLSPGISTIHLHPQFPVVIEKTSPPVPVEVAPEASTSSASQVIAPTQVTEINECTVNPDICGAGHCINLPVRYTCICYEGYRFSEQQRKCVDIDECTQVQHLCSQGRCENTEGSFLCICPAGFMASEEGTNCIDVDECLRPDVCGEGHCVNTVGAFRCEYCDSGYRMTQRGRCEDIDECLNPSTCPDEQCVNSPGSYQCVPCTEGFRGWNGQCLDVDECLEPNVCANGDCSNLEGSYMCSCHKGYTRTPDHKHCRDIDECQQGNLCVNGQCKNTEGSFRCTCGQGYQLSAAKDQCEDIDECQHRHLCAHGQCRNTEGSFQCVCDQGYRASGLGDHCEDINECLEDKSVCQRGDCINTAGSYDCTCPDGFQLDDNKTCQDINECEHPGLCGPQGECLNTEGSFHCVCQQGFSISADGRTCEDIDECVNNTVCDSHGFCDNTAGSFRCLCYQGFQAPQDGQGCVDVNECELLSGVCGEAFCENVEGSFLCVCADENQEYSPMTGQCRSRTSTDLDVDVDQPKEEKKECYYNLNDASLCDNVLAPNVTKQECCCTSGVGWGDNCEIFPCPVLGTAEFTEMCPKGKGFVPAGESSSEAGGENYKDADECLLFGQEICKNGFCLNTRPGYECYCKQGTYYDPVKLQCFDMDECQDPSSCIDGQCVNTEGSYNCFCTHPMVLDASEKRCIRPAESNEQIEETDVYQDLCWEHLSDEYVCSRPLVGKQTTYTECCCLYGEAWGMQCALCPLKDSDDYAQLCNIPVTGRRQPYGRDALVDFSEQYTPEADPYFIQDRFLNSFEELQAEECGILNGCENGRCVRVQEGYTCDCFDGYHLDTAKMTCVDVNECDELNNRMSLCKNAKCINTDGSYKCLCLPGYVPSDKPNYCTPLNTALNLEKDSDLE
T1 sequence (P01137 30-390 limits assumed, chain 2 of 2): as the sequence (P01137 30-390 limits assumed, chain 2 of 2) above

B1: Ab21 (antibody, V domains shown)
VH: EVQLVESGGGLVQPGGSLRLSCAASGFTFSSFSMDWVRQAPGKGLEWVSYISPDASTIYYADSVKGRFTISRDNAKNSLYLQMNSLRAEDTAVYYCARGVLDYGDMLDPWGQGTLVTVSS
VL: DIQMTQSPSSLSASVGDRVTITCQASQDITNYLNWYQQKPGKAPKLLIYDASNLETGVPSRFSGSGSGTDFTFTISSLQPEDIATYYCQQADNHPPWTFGGGTKVEIK
Consider B1, for which the Kd in assay [1] is 0.225 nM; in [2], 0.268 nM; in assay [3], 0.833 nM; in assay [4], 0.455 nM. Also, the “IC50, reporter cell assay” value was found to be 1.6 nM in assay [5], 0.8 nM in assay [6], 0.4 nM in assay [7] and 0.6 nM in assay [8].

B2: Ab5 (antibody, V domains shown)
VH: EVQLVESGGGLVQPGGSLRLSCAASGFTFSSFSMDWVRQAPGKGLEWVSYISPDASTIYYADSVKGRFTISRDNAKNSLYLQMNSLRAEDTAVYYCARGVLDYGDMLDPWGQGTLVTVSS
VL: DIQMTQSPSSLSASVGDRVTITCQASQDITNYLNWYQQKPGKAPKLLIYDASNLETGVPSRFSGSGSGTDFTFTISSLQPEDIATYYCQQADNHPPWTFGGGTKVEIK
Regarding B2, the “IC50, reporter cell assay” value amounted to 1.3 nM in assay [5], 1 nM in assay [6], 0.1 nM in assay [7] and 0.6 nM in assay [8].

B3: Ab27 (antibody, V domains shown)
VH: EVQLVESGGGLVQPGGSLRLSCAASGFTFSFYAMNWVRQAPGKGLEWVSYISPDASTIYYADSVKGRFTISRDNAKNSLYLQMNSLRAEDTAVYYCARGVLDYGDMLDPWGQGTLVTVSS
VL: DIQMTQSPSSLSASVGDRVTITCQASQDITNYLNWYQQKPGKAPKLLIYDASNLETGVPSRFSGSGSGTDFTFTISSLQPEDIATYYCQQADNHPPWTFGGGTKVEIK
With B3, the Kd in [1] was determined as 0.178 nM; in [2], 0.238 nM; in assay [3], 0.424 nM; in [4], 0.299 nM.

B4: Ab24 (antibody, V domains shown)
VH: EVQLVESGGGLVQPGRSLRLSCAASGFTFSSFAMYWVRQAPGKGLEWVSYISPDASTIYYADSVKGRFTISRDNAKNSLYLQMNSLRAEDTAVYYCARGVLDYGDMLDPWGQGTLVTVSS
VL: DIQMTQSPSSLSASVGDRVTITCQASQDITNYLNWYQQKPGKAPKLLIYDASNLETGVPSRFSGSGSGTDFTFTISSLQPEDIATYYCQQADNHPPWTFGGGTKVEIK
As for B4, the Kd stood at 0.246 nM in assay [1]; 0.198 nM in assay [2]; 0.665 nM in [3]; 0.41 nM in assay [4]; 0.024 nM in assay [9]; 0.021 nM in assay [10]. Moreover, the values for the Kd in assay [11] and in assay [12] were 0.019 nM and 0.18 nM, respectively.

B5: Ab22 (antibody, V domains shown)
VH: EVQLVESGGGLVQPGGSLRLSCAASGFTFGSFSMNWVRQAPGKGLEWVSYIHSDASTIYYADSVKGRFTISRDNAKNSLYLQMNSLRAEDTAVYYCARGVLDYGDMLDPWGQGTLVTVSS
VL: DIQMTQSPSSLSASVGDRVTITCQASQDITNYLNWYQQKPGKAPKLLIYDASNLETGVPSRFSGSGSGTDFTFTISSLQPEDIATYYCQQADNHPPWTFGGGTKVEIK
For B5, the Kd worked out at 0.318 nM in assay [1]; 0.329 nM in assay [2]; 0.974 nM in assay [3]; 0.415 nM in assay [4]; 0.05 nM in assay [9]; 0.033 nM in assay [10]. For the same molecule, the values for the Kd in assay [11] and in assay [12] were 0.027 nM and 0.2 nM, respectively.

B6: Ab31 (antibody, V domains shown)
VH: EVQLVESGGGLVQPGGSLRLSCAASGFTFSSFSMDWVRQAPGKGLEWVSYISPDASTIYYADSVKGRFTISRDNAKNTLYLQMNSLRAEDTAVYYCARAVLDYGDMLDPWGQGTLVTVSS
VL: DIQMTQSPSSLSASVGDRVTITCQASQDITNYLNWYQQKPGKAPKLLIYDASNLETGVPSRFSGSGSGTDFTFTISSLQPEDIATYYCQQADNHPPWTFGGGTKVEIK
Take B6: the Kd in assay [1] amounted to 0.236 nM; in assay [2] it was 0.181 nM; in assay [3], 0.581 nM; in [4] it was 0.41 nM; in assay [9] it was 0.019 nM; in assay [10] it was 0.014 nM. The results for the Kd in assay [11] and in [12] were 0.019 nM and 0.096 nM, respectively.

B7: Ab32 (antibody, V domains shown)
VH: EVQLVESGGGLVQPGGSLRLSCAASGFTFSSFSMNWVRQAPGKGLEWVSYISPSADTIYYADSVKGRFTISRDNAKNTLYLQMNSLRAEDTAVYYCARGVWDMGDMLDPWGQGTLVTVSS
VL: DIQMTQSPSSLSASVGDRVTITCQASQDITNYLNWYQQKPGKAPKLLIYDASNLETGVPSRFSGSGSGTDFTFTISSLQPEDIATYYCQQADNHPPWTFGGGTKVEIK
For the molecule B7, the Kd came to 0.269 nM in [1]; 0.215 nM in assay [2]; 0.496 nM in assay [3]; 0.698 nM in assay [4]; 0.037 nM in assay [9]; 0.026 nM in assay [10]. The Kd was found to be 0.015 nM in assay [11] and 0.087 nM in assay [12].

B8: Ab30 (antibody, V domains shown)
VH: EVQLVESGGGLVQPGGSLRLSCAASGFTFSSFSMDWVRQAPGKGLEWVSYISPDASTIYYADSVKGRFTISRDNAKNSLYLQMNSLRAEDTAVYYCARGTLDYGDMLDPWGQGTLVTVSS
VL: DIQMTQSPSSLSASVGDRVTITCQASQDITNYLNWYQQKPGKAPKLLIYDASNLETGVPSRFSGSGSGTDFTFTISSLQPEDIATYYCQQADNHPPWTFGGGTKVEIK
Turning to B8, the Kd in assay [1] was determined as 0.332 nM; in assay [2] it was 0.261 nM; in assay [3], 0.833 nM; in assay [4], 0.535 nM; in assay [9], 0.031 nM; in assay [10] it was 0.026 nM. Moreover, the Kd turned out to be 0.022 nM in assay [11] and 0.14 nM in assay [12].

B9: Ab28 (antibody, V domains shown)
VH: EVQLVESGGGLVQPGGSLRLSCAASGFTFSSFSMDWVRQAPGKGLEWVSYISPDASTIYYADSVKGRFTISRDNAKNSLYLQMNSLRAEDTAVYYCVRGVLDYGDMLDPWGQGTLVTVSS
VL: DIQMTQSPSSLSASVGDRVTITCQASQDITNYLNWYQQKPGKAPKLLIYDASNLETGVPSRFSGSGSGTDFTFTISSLQPEDIATYYCQQADNHPPWTFGGGTKVEIK
For B9, the Kd in assay [1] came to 0.34 nM; in assay [2] it was 0.316 nM; in assay [3], 0.797 nM; in assay [4], 0.409 nM.

B10: Ab23 (antibody, V domains shown)
VH: EVQLVESGGGLVQPGGSLRLSCAASGFTFSSFSMNWVRQAPGKGLEWVSYISPSADTIYYADSVKGRFTISRDNAKNTLYLQMNSLRAEDTAVYYCARGVLDYGDMLDPWGQGTLVTVSS
VL: DIQMTQSPSSLSASVGDRVTITCQASQDITNYLNWYQQKPGKAPKLLIYDASNLETGVPSRFSGSGSGTDFTFTISSLQPEDIATYYCQQADNHPPWTFGGGTKVEIK
Turning to B10, the Kd came out at 0.417 nM in assay [1], 0.468 nM in [2], 1.34 nM in assay [3] and 0.455 nM in assay [4]. The “IC50, reporter cell assay” value in assay [5] was determined as 0.8 nM; in [6], 0.9 nM; in assay [7], 0.3 nM; in assay [8], 0.6 nM.

B11: Ab25 (antibody, V domains shown)
VH: EVQLVESGGGLVQPGGSLRLSCAASGFTFGSFSMDWVRQAPGKGLEWVSYISPDASTIYYADSVKGRFTISRDNAKNSLYLQMNSLRAEDTAVYYCARGVLDYGDMLDPWGQGTLVTVSS
VL: DIQMTQSPSSLSASVGDRVTITCQASQDITNYLNWYQQKPGKAPKLLIYDASNLETGVPSRFSGSGSGTDFTFTISSLQPEDIATYYCQQADNHPPWTFGGGTKVEIK
Take B11: the Kd stood at 0.217 nM in [1], 0.152 nM in [2], 0.488 nM in [3] and 0.409 nM in assay [4]. Also, the “IC50, reporter cell assay” value is 6.1 nM in assay [5], 0.51 nM in [6], 0.4 nM in assay [7] and 0.7 nM in assay [8].
